B1: Mutation 1-1 (antibody, V domains shown)
VH: EVQLQQSGAELVKPGASVKLSCTASGFNLKDYYMHWMKQRTEQGLDWIGRIDPEDAETKYAPEFQGKATITADTSSNTAYLQLSTLTSEDTAVYYCARYYSSYLPFVYWGQGTLVTASA
VL: DVVMTQTPLSLSVSLGDQASISCRSSQSILYSNRHTYLHWYLQKPGQSPKLLIFQLSNRFSGVPDRFSGSGSGTDFTLKINRVEAEDLGVYFCSQSTHLPYTFGSGTKLEIKR
notes: built as for Mutation 1
B2: Mutation 1-10 (antibody, V domains shown)
VH: EVQLQQSGAELVKPGASVKLSCTASGFNIKDYFMHWMKQRTEQGLDWIGRIDPEDAETRYAPEFQGKATITADTSSNTAYLQLSTLTSEDTAVYYCARYYSSYLPFVYWGQGTLVTASA
VL: DVVMTQTPLSLSVSLGDQASISCRSSQSIIYSNRHTYLHWYLQKPGQSPKLLIFQLSNRFSGVPDRFSGSGSGTDFTLKINRVEAEDLGVYFCSQSTHLPYTFGSGTKLEIKR
notes: built as for Mutation 1
B3: Mutation 1-17 (antibody, V domains shown)
VH: EVQLQQSGAELVKPGASVKLSCTASGFNLKDYYMHWMKQRTEQGLDWIGRIDPEDAETRYAPEFQGKATITADTSSNTAYLQLSTLTSEDTAVYYCARYYSSYLPFVYWGQGTLVTASA
VL: DVVMTQTPLSLSVSLGDQASISCRSSQSIIYSNRHTYLHWYLQKPGQSPKLLIFQLSNRFSGVPDRFSGSGSGTDFTLKINRVEAEDLGVYFCSQSTHIPYTFGSGTKLEIKR
notes: built as for Mutation 1
B4: Mutation 1-20 (antibody, V domains shown)
VH: EVQLQQSGAELVKPGASVKLSCTASGFNLKDYFMHWMKQRTEQGLDWIGRIDPEDGETKYAPEFQGKATITADTSSNTAYLQLSTLTSEDTAVYYCARYYSSYVPFVYWGQGTLVTASA
VL: DVVMTQTPLSLSVSLGDQASISCRSSQSLIYSNRHTYLHWYLQKPGQSPKLLIFQVSNRFSGVPDRFSGSGSGTDFTLKINRVEAEDLGVYFCSQSTHIPFTFGSGTKLEIKR
notes: built as for Mutation 1
B5: Mutation 1-25 (antibody, V domains shown)
VH: EVQLQQSGAELVKPGASVKLSCTASGFNLKDYYMHWMKQRTEQGLDWIGRIDPEDGETRYAPEFQGKATITADTSSNTAYLQLSTLTSEDTAVYYCARYYSSYIPFVYWGQGTLVTASA
VL: DVVMTQTPLSLSVSLGDQASISCRSSQSIIYSNRHTYLHWYLQKPGQSPKLLIFQISNRFSGVPDRFSGSGSGTDFTLKINRVEAEDLGVYFCSQSTHLPYTFGSGTKLEIKR
notes: built as for Mutation 1
B6: Mutation 1-21 (antibody, V domains shown)
VH: EVQLQQSGAELVKPGASVKLSCTASGFNLKDYYMHWMKQRTEQGLDWIGRIDPEDAETKYAPEFQGKATITADTSSNTAYLQLSTLTSEDTAVYYCARYYSSYLPFVYWGQGTLVTASA
VL: DVVMTQTPLSLSVSLGDQASISCRSSQSLLYSNRHTYLHWYLQKPGQSPKLLIFQLSNRFSGVPDRFSGSGSGTDFTLKINRVEAEDLGVYFCSQSTHLPFTFGSGTKLEIKR
notes: built as for Mutation 1
B7: Mutation 1-12 (antibody, V domains shown)
VH: EVQLQQSGAELVKPGASVKLSCTASGFNLKDYFMHWMKQRTEQGLDWIGRIDPEDGETKYAPEFQGKATITADTSSNTAYLQLSTLTSEDTAVYYCARYYSSYLPFVYWGQGTLVTASA
VL: DVVMTQTPLSLSVSLGDQASISCRSSQSILYSNRHTYLHWYLQKPGQSPKLLIFQLSNRFSGVPDRFSGSGSGTDFTLKINRVEAEDLGVYFCSQSTHLPYTFGSGTKLEIKR
notes: built as for Mutation 1
B8: Mutation 1-22 (antibody, V domains shown)
VH: EVQLQQSGAELVKPGASVKLSCTASGFNIKDYFMHWMKQRTEQGLDWIGRIDPEDGETRYAPEFQGKATITADTSSNTAYLQLSTLTSEDTAVYYCARYYSSYVPFVYWGQGTLVTASA
VL: DVVMTQTPLSLSVSLGDQASISCRSSQSIIYSNRHTYLHWYLQKPGQSPKLLIFQVSNRFSGVPDRFSGSGSGTDFTLKINRVEAEDLGVYFCSQSTHLPYTFGSGTKLEIKR
notes: built as for Mutation 1
B9: Mutation 1-8 (antibody, V domains shown)
VH: EVQLQQSGAELVKPGASVKLSCTASGFNLKDYFMHWMKQRTEQGLDWIGRIDPEDGETRYAPEFQGKATITADTSSNTAYLQLSTLTSEDTAVYYCARYYSSYLPFVYWGQGTLVTASA
VL: DVVMTQTPLSLSVSLGDQASISCRSSQSLIYSNRHTYLHWYLQKPGQSPKLLIFQLSNRFSGVPDRFSGSGSGTDFTLKINRVEAEDLGVYFCSQSTHLPFTFGSGTKLEIKR
notes: built as for Mutation 1
B10: Mutation 1-15 (antibody, V domains shown)
VH: EVQLQQSGAELVKPGASVKLSCTASGFNIKDYYMHWMKQRTEQGLDWIGRIDPEDGETRYAPEFQGKATITADTSSNTAYLQLSTLTSEDTAVYYCARYYSSYVPFVYWGQGTLVTASA
VL: DVVMTQTPLSLSVSLGDQASISCRSSQSIIYSNRHTYLHWYLQKPGQSPKLLIFQVSNRFSGVPDRFSGSGSGTDFTLKINRVEAEDLGVYFCSQSTHIPYTFGSGTKLEIKR
notes: built as for Mutation 1
B11: Mutation 1-7 (antibody, V domains shown)
VH: EVQLQQSGAELVKPGASVKLSCTASGFNIKDYYMHWMKQRTEQGLDWIGRIDPEDAETRYAPEFQGKATITADTSSNTAYLQLSTLTSEDTAVYYCARYYSSYIPFVYWGQGTLVTASA
VL: DVVMTQTPLSLSVSLGDQASISCRSSQSLIYSNRHTYLHWYLQKPGQSPKLLIFQISNRFSGVPDRFSGSGSGTDFTLKINRVEAEDLGVYFCSQSTHLPYTFGSGTKLEIKR
notes: built as for Mutation 1
B12: Mutation 1-13 (antibody, V domains shown)
VH: EVQLQQSGAELVKPGASVKLSCTASGFNLKDYYMHWMKQRTEQGLDWIGRIDPEDAETRYAPEFQGKATITADTSSNTAYLQLSTLTSEDTAVYYCARYYSSYVPFVYWGQGTLVTASA
VL: DVVMTQTPLSLSVSLGDQASISCRSSQSLIYSNRHTYLHWYLQKPGQSPKLLIFQVSNRFSGVPDRFSGSGSGTDFTLKINRVEAEDLGVYFCSQSTHLPFTFGSGTKLEIKR
notes: built as for Mutation 1
B13: Mutation 1-2 (antibody, V domains shown)
VH: EVQLQQSGAELVKPGASVKLSCTASGFNIKDYFMHWMKQRTEQGLDWIGRIDPEDGETRYAPEFQGKATITADTSSNTAYLQLSTLTSEDTAVYYCARYYSSYVPFVYWGQGTLVTASA
VL: DVVMTQTPLSLSVSLGDQASISCRSSQSLIYSNRHTYLHWYLQKPGQSPKLLIFQVSNRFSGVPDRFSGSGSGTDFTLKINRVEAEDLGVYFCSQSTHIPFTFGSGTKLEIKR
notes: built as for Mutation 1
B14: Mutation 1-5 (antibody, V domains shown)
VH: EVQLQQSGAELVKPGASVKLSCTASGFNLKDYYMHWMKQRTEQGLDWIGRIDPEDGETRYAPEFQGKATITADTSSNTAYLQLSTLTSEDTAVYYCARYYSSYIPFVYWGQGTLVTASA
VL: DVVMTQTPLSLSVSLGDQASISCRSSQSIIYSNRHTYLHWYLQKPGQSPKLLIFQISNRFSGVPDRFSGSGSGTDFTLKINRVEAEDLGVYFCSQSTHIPFTFGSGTKLEIKR
notes: built as for Mutation 1
B15: Mutation 1-9 (antibody, V domains shown)
VH: EVQLQQSGAELVKPGASVKLSCTASGFNLKDYYMHWMKQRTEQGLDWIGRIDPEDGETKYAPEFQGKATITADTSSNTAYLQLSTLTSEDTAVYYCARYYSSYIPFVYWGQGTLVTASA
VL: DVVMTQTPLSLSVSLGDQASISCRSSQSLLYSNRHTYLHWYLQKPGQSPKLLIFQISNRFSGVPDRFSGSGSGTDFTLKINRVEAEDLGVYFCSQSTHIPYTFGSGTKLEIKR
notes: built as for Mutation 1
B16: Mutation 1-19 (antibody, V domains shown)
VH: EVQLQQSGAELVKPGASVKLSCTASGFNIKDYYMHWMKQRTEQGLDWIGRIDPEDGETRYAPEFQGKATITADTSSNTAYLQLSTLTSEDTAVYYCARYYSSYLPFVYWGQGTLVTASA
VL: DVVMTQTPLSLSVSLGDQASISCRSSQSLIYSNRHTYLHWYLQKPGQSPKLLIFQLSNRFSGVPDRFSGSGSGTDFTLKINRVEAEDLGVYFCSQSTHIPFTFGSGTKLEIKR
notes: built as for Mutation 1
B17: Mutation 1-16 (antibody, V domains shown)
VH: EVQLQQSGAELVKPGASVKLSCTASGFNLKDYFMHWMKQRTEQGLDWIGRIDPEDAETRYAPEFQGKATITADTSSNTAYLQLSTLTSEDTAVYYCARYYSSYIPFVYWGQGTLVTASA
VL: DVVMTQTPLSLSVSLGDQASISCRSSQSLLYSNRHTYLHWYLQKPGQSPKLLIFQISNRFSGVPDRFSGSGSGTDFTLKINRVEAEDLGVYFCSQSTHLPYTFGSGTKLEIKR
notes: built as for Mutation 1
B18: Mutation 1-3 (antibody, V domains shown)
VH: EVQLQQSGAELVKPGASVKLSCTASGFNIKDYYMHWMKQRTEQGLDWIGRIDPEDGETKYAPEFQGKATITADTSSNTAYLQLSTLTSEDTAVYYCARYYSSYLPFVYWGQGTLVTASA
VL: DVVMTQTPLSLSVSLGDQASISCRSSQSLLYSNRHTYLHWYLQKPGQSPKLLIFQLSNRFSGVPDRFSGSGSGTDFTLKINRVEAEDLGVYFCSQSTHIPYTFGSGTKLEIKR
notes: built as for Mutation 1

T1 sequence (P19429 2-210 limits assumed): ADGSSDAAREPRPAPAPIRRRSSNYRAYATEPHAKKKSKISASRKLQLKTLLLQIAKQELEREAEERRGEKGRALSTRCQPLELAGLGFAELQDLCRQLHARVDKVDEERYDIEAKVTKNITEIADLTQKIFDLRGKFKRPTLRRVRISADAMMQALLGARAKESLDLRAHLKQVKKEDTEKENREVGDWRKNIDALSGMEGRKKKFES

This test addresses T1, CTNI quality control recombinant protein (PK2-CTNI-1, 170120, produced by the applicant) (human, UniProt P19429 2-210, limits assumed).
T1 construct: also called cardiac troponin I
Kind of test: AMC sensor kinetics, antibody captured, cTnI analyte. The procedure:
Using the AMC sensor, the purified antibody was diluted with PBST to 10 μg/ml, and the CTNI quality control recombinant protein (PK2-CTNI-1, 170120, produced by the applicant) was serially diluted with PBST to 400 nmol/ml, 200 nmol/ml, 100 nmol/ml, 50 nmol/ml, 25 nmol/ml, 12.5 nmol/ml, 6.25 nmol/ml, and 0 nmol/ml.
Consider B1, for which the Kd amounted to 0.865 nM, the koff was 0.000311 s⁻¹ and the kon is 359000 M⁻¹ s⁻¹.

B2: the Kd stood at 0.922 nM, the off-rate (koff) was 0.000413 s⁻¹ and the kon stood at 448000 M⁻¹ s⁻¹.

With B3, the Kd amounted to 0.722 nM, the off-rate (koff) amounted to 0.000565 s⁻¹ and the kon was found to be 782000 M⁻¹ s⁻¹.

Take B4: the Kd worked out at 0.945 nM, the koff amounted to 0.000158 s⁻¹ and the association rate constant (kon) turned out to be 167000 M⁻¹ s⁻¹.

With B5, the Kd is 0.97 nM, the koff was 0.000659 s⁻¹ and the kon is 679000 M⁻¹ s⁻¹.

For B6, the Kd is 0.676 nM, the koff came out at 0.000477 s⁻¹ and the on-rate constant (kon) was 705000 M⁻¹ s⁻¹.

Regarding B7, the Kd is 0.834 nM, the koff stood at 0.000258 s⁻¹ and the kon turned out to be 309000 M⁻¹ s⁻¹.

Regarding B8, the Kd amounted to 0.725 nM, the koff is 0.000215 s⁻¹ and the kon came out at 297000 M⁻¹ s⁻¹.

Regarding B9, the Kd was found to be 0.303 nM, the koff is 2.58e-05 s⁻¹ and the kon amounted to 85100 M⁻¹ s⁻¹.

As for B10, the dissociation constant Kd was 0.917 nM, the koff was 0.000245 s⁻¹ and the kon was determined as 267000 M⁻¹ s⁻¹.

B11: the Kd stood at 0.804 nM, the koff is 0.00056 s⁻¹ and the kon was 697000 M⁻¹ s⁻¹.

For B12, the Kd is 0.806 nM, the koff is 0.000251 s⁻¹ and the association rate constant (kon) is 311000 M⁻¹ s⁻¹.

As for B13, the Kd is 0.623 nM, the koff is 0.000268 s⁻¹ and the association rate constant (kon) stood at 430000 M⁻¹ s⁻¹.

Take B14: the Kd was 0.623 nM, the koff worked out at 0.0001 s⁻¹ and the association rate constant (kon) was found to be 161000 M⁻¹ s⁻¹.

Take B15: the Kd came to 0.866 nM, the koff turned out to be 9.18e-05 s⁻¹ and the kon amounted to 106000 M⁻¹ s⁻¹.

B16: the Kd came out at 0.487 nM, the koff was found to be 0.000191 s⁻¹ and the kon came out at 393000 M⁻¹ s⁻¹.

As to B17, the Kd turned out to be 0.662 nM, the off-rate (koff) is 0.000101 s⁻¹ and the kon was 152000 M⁻¹ s⁻¹.

Consider B18, for which the Kd was determined as 0.676 nM, the koff worked out at 0.000122 s⁻¹ and the kon was determined as 181000 M⁻¹ s⁻¹.
